Where a chain is given by its changes, count along the chain named.
Legend:
Assay in all cases: filter binding
R.MwoI A330R = biological target: T1, R.MwoI A330R (Methanothermobacter wolfeii (DSMZ), UniProt O59646 1-363, A330R)
T1 sequence: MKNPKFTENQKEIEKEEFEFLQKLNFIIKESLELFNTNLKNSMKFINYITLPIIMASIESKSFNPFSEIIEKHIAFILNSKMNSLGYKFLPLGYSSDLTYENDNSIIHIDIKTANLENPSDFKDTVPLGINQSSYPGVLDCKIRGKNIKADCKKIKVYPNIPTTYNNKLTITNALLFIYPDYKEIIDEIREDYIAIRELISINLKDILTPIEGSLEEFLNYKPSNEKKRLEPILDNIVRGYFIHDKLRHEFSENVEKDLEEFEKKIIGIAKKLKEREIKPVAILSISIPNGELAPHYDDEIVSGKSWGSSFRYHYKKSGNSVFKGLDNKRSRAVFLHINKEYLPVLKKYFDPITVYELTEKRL

R.MwoI E68A = biological target: T2, R.MwoI E68A (Methanothermobacter wolfeii (DSMZ), UniProt O59646 1-363, E68A)
T2 sequence: T1 sequence with E68A, R330A

R.MwoI T125R = biological target: T3, R.MwoI T125R (Methanothermobacter wolfeii (DSMZ), UniProt O59646 1-363, T125R)
T3 sequence: T1 sequence with T125R, R330A

R.MwoI S310A = biological target: T4, R.MwoI S310A (Methanothermobacter wolfeii (DSMZ), UniProt O59646 1-363, S310A)
T4 sequence: T1 sequence with S310A, R330A

R.MwoI D110A = biological target: T5, R.MwoI D110A (Methanothermobacter wolfeii (DSMZ), UniProt O59646 1-363, D110A)
T5 sequence: T1 sequence with D110A, R330A

R.MwoI K112A = biological target: T6, R.MwoI K112A (Methanothermobacter wolfeii (DSMZ), UniProt O59646 1-363, K112A)
T6 sequence: T1 sequence with K112A, R330A

R.MwoI S310D = biological target: T7, R.MwoI S310D (Methanothermobacter wolfeii (DSMZ), UniProt O59646 1-363, S310D)
T7 sequence: T1 sequence with S310D, R330A

R.MwoI S310K = biological target: T8, R.MwoI S310K (Methanothermobacter wolfeii (DSMZ), UniProt O59646 1-363, S310K)
T8 sequence: T1 sequence with S310K, R330A

B1: MwoI target oligonucleotide (dsDNA)
DNA 1: CGGCTGTAGTCGCAC
DNA 2: GTGCGACTACAGCCG
binding signal (R.MwoI A330R): > 350 % of wt | binding signal (R.MwoI E68A): > 350 % of wt | binding signal (R.MwoI T125R): 42 % of wt | binding signal (R.MwoI S310A): 53 % of wt | binding signal (R.MwoI D110A): 25 % of wt | binding signal (R.MwoI K112A): 114 % of wt

B2: G/C (GCGN5CGC) (dsDNA)
DNA 1: GACAGTGCGATCTCCGCGACAGT
DNA 2: ACTGTCGCGGAGATCGCACTGTC
binding result (R.MwoI S310D): binds

B3: C/G (GCCN5GGC) (dsDNA)
DNA 1: GACAGTGCCATCTCGGCGACAGT
DNA 2: ACTGTCGCCGAGATGGCACTGTC
binding result (R.MwoI S310K): binds

B4: A/T (GCAN5TGC) (dsDNA)
DNA 1: GACAGTGCAATCTCTGCGACAGT
DNA 2: ACTGTCGCAGAGATTGCACTGTC
binding result (R.MwoI S310D): binds

— publication PMC3458533
